The values that follow come from patent publication US20230255880A1, “IMMOBILIZED ENZYME-BASED WOUND DEBRIDEMENT” (Guild Associates Inc., priority 2022, published 2023).

In one series the test system is casein. As to the kind of experiment: pH stability and autolytic resistance, 6 hours at 37° C. in phosphate buffer. Format: physicochemical. Particulars: for Retained activity after 6 hours of exposure: phosphate buffer, average of 5 ± standard error. Here is the method:
Natural (non-immobilized) and immobilized forms of each enzyme were loaded into 10 mL of phosphate buffer solutions at pH 7.0, 6.0, and 5.0 and mixed for 6 hours at 37° C. These pH values were selected as representative of the range of pH of intact to wounded skin. The amount of natural or immobilized enzyme material that was added at the start of the test was based on its measured activity, so that all tests started with similar enzyme activities for each enzyme: 2.6 U bromelain, 21 U collagenase, and 5.4 U trypsin. Retained activity was determined by taking a sample of the test solution at a given time point and evaluating it against casein. The measured activity of the test sample was divided by the activity measured at the start of the test and is presented as the average of 5 measurements±standard error, Table 2.

A short description of series [1]: Diffusion through Strat-M membranes in Franz cell (in vitro dermal compatibility). Format: in vitro ADME. Particulars: after 6 hours, averaged across all tests, 37° C., PBS pH 7.4. An excerpt:
Strat-M™ membranes (EMD Millipore) were selected and for testing diffusion of the immobilized enzyme through healthy skin. Strat-M is a synthetic polymeric membrane designed to simulate the properties of human skin for transdermal diffusion. The membrane is composed of multiple polyether sulfone layers with a tightly packed surface layer to create a morphology that resembles human skin. The advantage of this material is that it provides a more predictive result, since it has less variability between samples, and is not as limited to storage conditions, safety considerations, and sample availability.
Franz cells with 5 mL receptor volumes were filled with filtered 10 mM PBS buffer at pH 7.4 and held at 37° C. Strat-M membranes were placed on the receptor, covered with 0.3 mL of buffer, and the system was allowed to equilibrate with the receptor fluid for at least 30 minutes. After equilibration 0.5 mL of solutions containing 20-100 mg/mL of natural enzyme, immobilized enzyme, or BSA as a control were added to the top of the Franz cell and the cell was covered. 0.5 mL samples were taken hourly (replacing the volume with fresh PBS buffer each time) for the first 6 hours and a final sample at 24 hours. The protein concentration in each sample was evaluated using a Bradford assay and a 660 nm protein concentration assay from Pierce. The enzyme activity of the 24-hour samples was evaluated to determine if active enzyme or just peptides had passed through the membrane.

For a further series, the system named is Human keratinocytes. Description: Keratinocyte compatibility testing, resazurine-based assay. Format: cell-based. The method, then: (§1) Immobilized enzyme samples were further analyzed to determine if they have a detrimental effect on healthy tissue surrounding a burn wound. Human keratinocytes and fibroblasts obtained from ATCC, were seeded at cell densities of 2×10^4 in 24 well plates 6 days prior to experiments and incubated at 37° C. under 5% CO2. On day 7 a stock solution of 100 mg/mL an immobilized enzyme or natural enzyme is prepared in either PBS or a culture medium. Cells were treated with 500 μL of the enzyme solution, at several dilutions, for up to 6 hours. At the end of the test, the enzyme solution is removed, cells were washed twice with PBS, and 500 μL of the appropriate cultivation media is added. The effect of the different concentrations of enzyme on the cells is assessed using a resazurine-based assay and life cell imaging. In this case the fluorescence signal is proportional to the amount of vital cells. All enzyme concentrations were measured in triplicate (n=3). The enzyme containing fluid removed after 6 hours of exposure to cells is evaluated using the methods described above for enzymatic activity. Data determined above is used to compensate for autolytic degradation in test samples.

The test system of the next series is Human fibroblasts. Description: Fibroblast compatibility study, resazurine-based assay. Particulars: all tested concentrations. It is filed as cell-based. The method, then:
as §1

Consider bromelain, for which the “Retained activity after 6 hours of exposure” value (from here on “Retained activity”) is 95.6% ± 4.9% in the series on casein (pH 5, 37° C., listed as bromelain Natural); 36.1% ± 1.4% in the series with casein (pH 6, 37° C.); 64.7% ± 3.0% with casein (pH 7, 37° C.). Besides, in series [1], the “Amount of protein passing through Strat-M membranes” value (from here on “Amount”) came out at 2.08 ± 0.25 mg. This substance also yielded a Highest relative signal in the series with Human keratinocytes (40 mg/mL) of 6.71.
For the substance collagenase, the “Loss of initial activity within 6 hours” value with casein (all pH tested) is recorded as 80-90%. Moreover, the “Retained activity” value with casein (pH 5, 37° C.) is listed as 12.3% ± 4.5%; with casein (pH 6, 37° C.), 18.9% ± 1.3%; in the series with casein (pH 7, 37° C.) it was 13.9% ± 3.3%. Moreover, the “Amount” value in series [1] stood at 18.15 ± 0.81 mg. The “Relative signal (cell growth)” value in the series with Human fibroblasts is on record as ~1.
As for trypsin, the “Retained activity” value with casein (pH 5, 37° C.) was 43.3% ± 1.1%; in the series with casein (pH 6, 37° C.), 46.1% ± 1.2%; with casein (pH 7, 37° C.), 7.7% ± 5.3%. Moreover, the “Loss of starting activity after 6 hours” value in the series with casein (pH 7) is on record as 92%. Besides, the “Amount” value in series [1] is listed as 11.93 ± 0.50 mg. Besides, in the series on Human fibroblasts, the “Relative signal (cell growth)” value is “almost no change to cell growth”. Also, the Relative signal result with Human keratinocytes (all tested concentrations) is “around 1”.
